Test results from patent publication US20170051048A1 (ALDERBIO, published 2017).

B1: Antibody Ab9 (antibody, human IgG1, kappa, N297A, V domains shown)
VH: QSVEESGGRLVTPGTPLTLTCTVSGIDLSMYSMGWVRQAPGKGLEYIGWISYGGTAYYASWAKGRFTISKTSTTVELKITSPTIEDTATYFCARETPVNYYLDIWGQGTLVTVSS
VL: AYDMTQTPASVSAAVGGTVTIKCQASENIGSYLAWYQQKPGQPPELLIYRASTLASGVPSRFKGSGSGTQFTLTISGVECADAATYYCQQGYNSENLDNAFGGGTEVVVKR
B2: Antibody Ab16 (antibody, human IgG1, kappa, N297A, V domains shown)
VH: QSVEEFGGRLVTPGTPLTLTCTVSGFSLNNYAMTWVRQAPGKGLEWIGIIGSIGTTYYASWAKGRFFISKTSTTVDLKIISPTTEDTATYFCARDAGVTVDGYGYYFNIWGPGTLVTVSS
VL: ALVMTQTPSSTSEPVGGTVTINCQASQNIGNDLSWYQQKPGQPPELLIYSTSKLATGVPKRFSGSRSGTQFTLTISDLECDDAATYYCLGVYSYISDDGNAFGGGTEVVVKR
B3: Antibody Ab7 (antibody, human IgG1, kappa, N297A, V domains shown)
VH: QEQLKESGGRLVTPGTPLTLTCTVSGFSLSSYAMIWVRQAPGKGLEYIGYIDTDTSAYYASWVKGRFTISRTSTTVDLKITSPTTEDTATYFCARSYAAYGGYPATFDPWGPGTLVTVSS
VL: DVVMTQTPASVSQPVGGTVTIKCQASEDIYNLLAWYQQKPGQPPKLLIYSASTLASGVPSRFKGSGSGTEYTLTISGLECADAATYYCQNNYLVTTYGVAFGGGTEVVVKR
B4: Antibody Ab6 (antibody, human IgG1, kappa, N297A)
heavy: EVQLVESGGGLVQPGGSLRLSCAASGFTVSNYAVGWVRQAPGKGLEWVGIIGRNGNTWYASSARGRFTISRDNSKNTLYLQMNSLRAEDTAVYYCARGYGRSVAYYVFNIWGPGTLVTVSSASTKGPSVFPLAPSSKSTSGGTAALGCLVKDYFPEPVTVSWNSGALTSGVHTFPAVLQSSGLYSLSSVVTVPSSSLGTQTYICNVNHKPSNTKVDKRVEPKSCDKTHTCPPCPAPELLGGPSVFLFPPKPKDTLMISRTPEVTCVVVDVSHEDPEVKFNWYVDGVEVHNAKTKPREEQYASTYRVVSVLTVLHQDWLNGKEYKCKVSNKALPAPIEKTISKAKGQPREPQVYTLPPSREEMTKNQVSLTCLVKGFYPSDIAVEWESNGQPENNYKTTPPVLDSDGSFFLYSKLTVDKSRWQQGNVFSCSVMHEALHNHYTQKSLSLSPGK
light: DIQMTQSPSTLSASVGDRVTITCQASQSIYSNLAWYQQKPGKAPKLLIYDASTLESGVPSRFSGSGSGTEYTLTISSLQPDDFATYYCQQGFTVSDIDNAFGGGTKVEIKRTVAAPSVFIFPPSDEQLKSGTASVVCLLNNFYPREAKVQWKVDNALQSGNSQESVTEQDSKDSTYSLSSTLTLSKADYEKHKVYACEVTHQGLSSPVTKSFNRGEC
B5: Antibody Ab10 (antibody, human IgG1, kappa, N297A, V domains shown)
VH: QVQLVESGGGVVQPGRSLRLSCAASGFTFSMYSMGWVRQAPGKGLEYIGWISYGGTAYYASSAKGRFTISRDNSKNTLYLQMSSLRAEDTAVYYCARETPVNYYLDIWGQGTLVTVSS
VL: AYDMTQSPSSLSASVGDRVTITCQASENIGSYLAWYQQKPGKVPKLLIYRASTLASGVPSRFSGSGSGTDFTLTISSLQPEDVATYYCQQGYNSENLDNAFGGGTKVEIKR
B6: Antibody Ab5 (antibody, human IgG1, kappa, N297A, V domains shown)
VH: QSVEESGGRLVTPGTPLTLTCTVSGFSLSNYAVGWVRQAPGKGLEWIGIIGRNGNTWYASWARGRFTISKTSTTVDLKITSPTSEDTATYFCARGYGRSVAYYVFNIWGPGTLVTVSS
VL: AYDMTQTPASVEVAVGGTVTIKCQASQSIYSNLAWYQQRPGQPPKLLIYDASTLESGVPSRFKGSGSGTEYTLTISGVECADAASYYCQQGFTVSDIDNAFGGGTEVVVKR
B7: Antibody Ab1 (antibody, human IgG1, kappa, N297A, V domains shown)
VH: QSLEESGGRLVTPGTPLTLTCTVSGFSLSSYAMSWVRQAPGKGLEWIGVITSIGSTVYASWAKGRFTISKTSTTVDLKITSPTTEDTATYFCARGYDDYDEMTYFNIWGQGTLVTVSS
VL: ALVMTQTPSSVSAAVGGTVTINCQASQNIYSNLAWYQQRPGQRPKLLIYGASNLDAGVPSRFRGSGSGTEYTLTISDLECDDVGTYYCQSAFDSDSTENTFGGGTEVVVKR
B8: Antibody Ab12 (antibody, human IgG1, kappa, N297A, V domains shown)
VH: QVQLVESGGGVVQPGRSLRLSCAASGFSLSGYDMSWVRQAPGKGLEWVGLISYDGNTYYATSAKGRFTISRDNSKNTLYLQMSSLRAEDTAVYYCARSLYAGPNAGIGPFNIWGQGTLVTVSS
VL: AFQMTQSPSSLSASVGDRVTITCQASQNIVTNLAWYQQKPGKVPKLLIYGASTLASGVPSRFSGSGSGTDFTLTISSLQPEDVATYYCQSYDGFNSAGFGGGTKVEIKR
B9: Antibody Ab8 (antibody, human IgG1, kappa, N297A, V domains shown)
VH: QVQLVESGGGVVQPGRSLRLSCAASGFTFSSYAMIWVRQAPGKGLEYIGYIDTDTSAYYASSVKGRFTISRDNSKNTLYLQMSSLRAEDTAVYYCARSYAAYGGYPATFDPWGQGTLVTVSS
VL: DIQMTQSPSSLSASVGDRVTITCQASEDIYNLLAWYQQKPGKVPKLLIYSASTLASGVPSRFSGSGSGTDYTLTISSLQPEDVATYYCQNNYLVTTYGVAFGGGTKVEIKR
B10: Antibody Ab15 (antibody, human IgG1, kappa, N297A, V domains shown)
VH: QSVEESGGRLVTPGTPLTLTCTVSGIDLSSYAMIWVRQAPGKGLEYIGIIWSGGTYYATWAKGRFTISKTSTTVDLQITSPTTEDAATYFCAAGGGSIYDVWGPGTLVTVSS
VL: AAVLTQTPSPVSAAVGDTVTIKCQSSQSVYKNNYLSWYQQKPGQPPKLLIYDASNLPSGVPSRFSGSGSGTQFTLTISGVQCDDAATYYCLGDYDDDTDNGFGGGTEVVVKR
B11: Antibody Ab17 (antibody, human IgG1, kappa, N297A, V domains shown)
VH: QSLEESGGRLVTPGGSLTLTCAASGFSLTGYNLVWVRQAPGKGLEWIGFISYGDTTYYASWAKGRFTISKTSTTVTLTITDLQPSDTGTYFCARETANTYDYGIWGPGTLVTVSS
VL: AIEMTQTPFSVSAAVGGTVTIKCQASQTISNYLAWYQQKPGQPPKLLIYGASNLESGVPSRFKGSGSGTQFTLTISDLECDDAATYYCQQGYTISNVDNNVFGGGTEVVVKR
B12: Antibody Ab4 (antibody, human IgG1, kappa, N297A, V domains shown)
VH: EVQLVESGGGLVQPGGSLRLSCAASGFTVSSYVMIWVRQAPGKGLEYIGITWSAGTYYASSAKGRFTISRDNSKNTLYLQMNSLRAEDTAVYYCAGGGGSIYDIWGQGTLVTVSS
VL: DIQMTQSPSTLSASVGDRVTITCQSSQSVYKNNYLSWYQQKPGKAPKLLIYDASNLPSGVPSRFSGSGSGTEFTLTISSLQPDDFATYYCLGDYDDDADNAFGGGTKVEIKR
B13: Antibody Ab14 (antibody, human IgG1, kappa, N297A, V domains shown)
VH: EVQLVESGGGLVQPGGSLRLSCAASGFTVSTYWMSWVRQAPGKGLEWVGDIYFSNEETNYASSAKGRFTISRDNSKNTLYLQMNSLRAEDTAVYYCARGSPDVDIGIDMWGPGTLVTVSS
VL: DIQMTQSPSSLSASVGDRVTITCQSSQNVYKNNYLSWYQQKPGKVPKLLIYKASTLASGVPSRFSGSGSGTDFTLTISSLQPEDVATYYCAGGYTSSSDNAFGGGTKVEIKR
B14: Antibody Ab20 (antibody, human IgG1, kappa, N297A, V domains shown)
VH: EVQLVESGGGLVQPGGSLRLSCAASGFTVSTYWMSWVRQAPGKGLEWVGDIYFSNEETNYATSAKGRFTISRDNSKNTLYLQMNSLRAEDTAVYYCARGSPDVEIAIDMWGQGTLVTVSS
VL: DIQMTQSPSSLSASVGDRVTITCQSSQNVYKNNYLSWYQQKPGKVPKLLIYKASTLASGVPSRFSGSGSGTDFTLTISSLQPEDVATYYCAGGYTSSSDNAFGGGTKVEIKR
B15: Antibody Ab2 (antibody, human IgG1, kappa, N297A, V domains shown)
VH: EVQLVESGGGLVQPGGSLRLSCAASGFTVSSYAMSWVRQAPGKGLEWVGVITSIGSTVYASSAKGRFTISRDNSKNTLYLQMNSLRAEDTAVYYCARGYDDYDEMTYFNIWGQGTLVTVSS
VL: DIQMTQSPSTLSASVGDRVTITCQASQNIYSNLAWYQQKPGKAPKLLIYGASNLDAGVPSRFSGSGSGTEYTLTISSLQPDDFATYYCQSAFDSDSTENTFGGGTKVEIKR
B16: Antibody Ab13 (antibody, human IgG1, kappa, N297A, V domains shown)
VH: QSVEASGGRLVTPGTPLTLTCTASGFSLSTYWMSWVRQAPGKGLEWIGDIYFSNEETNYASWAKGRFTISKTSTTVDLNVISPTTEDTATYFCARGSPDVDIGIDMWGPGTLVTVSS
VL: AAVLTQTPSPVSAAVGGTVSISCQSSQNVYKNNYLSWYQQKPGQPPKLLIYKASTLASGVPSRFKGGGSGTDFTLTISDVQCDAAATYYCAGGYTSSSDNAFGGGTEVVVKR
B17: Antibody Ab19 (antibody, human IgG1, kappa, N297A, V domains shown)
VH: QSVEASGGRLVMPGGSLTLTCTASGFSLSTYWMSWVRQAPGKGLEWIGDIYFSNEETNYATWAKGRFTISKTSTTVDLNVISPTTEDTATYFCARGSPDVEIAIDMWGQGTLVTVSS
VL: AAVLTQTPSPVSAAVGGTVSISCQSSQNVYKNNYLSWYQQKPGQPPKLLIYKASTLASGVPSRFKGSGSGTDFTLTISDVQCDAAATYYCAGGYSSSSDNAFGGGTEVVVKR
B18: Antibody Ab18 (antibody, human IgG1, kappa, N297A, V domains shown)
VH: EVQLVESGGGLVQPGGSLRLSCAASGFTVSGYNLVWVRQAPGKGLEWVGFISYGDTTYYASSAKGRFTISRDNSKNTLYLQMNSLRAEDTAVYYCARETANTYDYGIWGQGTLVTVSS
VL: DIQMTQSPSTLSASVGDRVTITCQASQTISNYLAWYQQKPGKAPKLLIYGASNLESGVPSRFSGSGSGTEFTLTISSLQPDDFATYYCQQGYTISNVDNNVFGGGTKVEIKR
B19: Antibody Ab11 (antibody, human IgG1, kappa, N297A, V domains shown)
VH: QSLEESGGRLVTPGTPLTLTCTASGFSLSGYDMSWVRQAPGKGLEYIGLISYDGNTYYATWAKGRFTISKTSTTVDLKITSPTTEDTATYFCARSLYAGPNAGIGPFNIWGQGTLVTVSS
VL: AFELTQTPSSVEAAVGGTVTIKCQASQNIVTNLAWYQQKPGQPPKLLIYGASTLASGVSSRFKGSGSGTQFTLTISDLECADAATYFCQSYDGFNSAGFGGGTEVVVKR

Key:
[1] = biological target: T1, Homo sapiens Beta-Nerve Growth Factor (beta-NGF) (Homo sapiens, UniProt P01138 122-241); assay: antigen binding ELISA: biotinylated NGF on neutravidin plates, anti-human Fc-HRP, OD at 450 nm
T1 construct: Biotinylated and held on neutravidin plates in the ELISA; also called huNGF; B-NGF
T1 sequence (P01138 122-241): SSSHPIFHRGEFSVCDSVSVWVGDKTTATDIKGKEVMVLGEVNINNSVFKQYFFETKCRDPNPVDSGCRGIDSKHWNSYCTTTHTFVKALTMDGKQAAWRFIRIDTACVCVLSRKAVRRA
Method: (§1) To identify and characterize antibodies and Fab fragments that bind to human NGF, antibody- and Fab-containing solutions were tested by ELISA. Briefly, neutravidin coated plates (Thermo Scientific), were blocked with ELISA buffer (0.1 mg/mL BSA, 1×PBS pH 7.4, 0.002% Tween 20 and 0.005% sodium azide) for 1 hr at room temperature. The plates were then coated with a 1 µg/mL biotinylated B-NGF solution in ELISA buffer for 1 hour at room temperature. This was followed by a wash step (3× using PBS plus 0.05% Tween 20) and a second block with ELISA buffer. The recombinant antibodies or Fabs were then added onto the plates and incubated for 1 hour at room temperature and then washed 3× with PBS/Tween solution. For development, an anti-human Fc-HRP or an anti-human Fab-fragment HRP (1:5000 dilution in ELISA buffer) was added onto the wells and incubated for 45 min at RT. After a 3× wash step with PBS/Tween solution, the plate was developed using TMB substrate for 3 minutes, stopped using 0.5M HCl, and read at 450 nm.

[2] = biological target: T1, Homo sapiens Beta-Nerve Growth Factor …; assay: Antigen binding ELISA: biotinylated NGF on neutravidin plates, anti-human Fc-HRP, OD 450 nm
Method: as §1

Binder	EC50 [1]	EC50 [2]	EC50 (read off the curve) [2]
B1	0.221 nM		
B2	0.358 nM		
B3	0.203 nM		
B4		0.256 nM	~0.3 nM
B5	0.306 nM		
B6		0.253 nM	~0.3 nM
B7		0.571 nM	~0.6 nM
B8	0.78 nM		
B9	0.207 nM		
B10	0.239 nM		
B11	0.7 nM		
B12		0.535 nM	~0.05 nM
B13	0.646 nM		
B14	0.667 nM		
B15		0.692 nM	~0.7 nM
B16	0.339 nM		
B17	0.441 nM		
B18	0.561 nM		
B19	0.379 nM		
